The values that follow come from PMC11843584.

Assay [1] addresses BID (BH3-interacting domain death agonist), N-terminal His6-tagged, wild type (human) (UniProt P55957). Description: light-scattering titration; peptide titrated into 5 μM BID, scattered photons of a 280-nm beam; 20 mM sodium acetate pH 6.3; also at 10, 24 and 37 °C, with 0.25% or 1% OG, and in 20 mM potassium phosphate pH 5.5 to 8.0.
Assay [2] has as its target Cleaved TEV-BID (p7 and tBID domains after TEV protease cleavage) (human) (UniProt P55957). Nature of the assay: thioflavin T fluorescence; 5 μM protein with 50 μM peptide, ThT emission spectra against protein alone, peptide alone and buffer.

Chain of UniProt P55957 (P55957 whole entry, the tested form may be a part): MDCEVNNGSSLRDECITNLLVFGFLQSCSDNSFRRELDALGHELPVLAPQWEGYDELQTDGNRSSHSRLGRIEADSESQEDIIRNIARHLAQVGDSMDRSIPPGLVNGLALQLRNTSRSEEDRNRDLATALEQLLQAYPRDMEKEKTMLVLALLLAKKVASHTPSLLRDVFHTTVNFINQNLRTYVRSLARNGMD

In the case of Humanin (HN), wild-type peptide, in assay [1], the fold increase in light scattering at pH 8.0 came to 8 fold, the fold increase in light scattering with 1% (w/v) OG against no detergent turned out to be 5 fold, the fold increase in scattered photons at 37 °C against 24 °C was found to be 2.5 fold and the fold increase in scattered photons at neutral pH against pH 6.0 was determined as 4 fold. Moreover, the protein-to-peptide ratio at the plateau of scattered photons (protein to peptide) in assay [1] was determined as 2. For the same substance, in assay [2], the increase in ThT fluorescence against WT BID was found to be 15%.
